In US6291645:

Biological target: GST.119-224 (glutathione S-transferase fusion protein of the SH2 domain, residues 119-224, of p56^lck) (not provided)
Test: competition of peptide with p62 in the GST.119-224 pull-down from HeLa lysate

pY324 phosphotyrosyl peptide (derived from polyoma middle T antigen)
concentration that competed away p62 binding: 1 mM

pY505 phosphotyrosyl peptide (derived from the C-terminal negative regulatory region of p56^lck)
concentration that competed away p62 binding: 15 mM
